Data on eight molecules can be found in patent US11833164B2, “Methods of treating Fabry disease in patients having a mutation in the GLA gene” (Amicus Therapeutics, Inc., priority 2019, dated 2023).

The test system of the assay is mutant form of α-Gal A expressed in HEK-293 cells. Put plainly: HEK assay (GLP HEK / Migalastat Amenability Assay): α-Gal A activity in lysates of transiently transfected HEK-293 cells incubated with or without 10 μM migalastat. Type of assay: cell-based, human. The settings on record: for Absolute increase (% WT) / Relative increase: 10 μM migalastat versus baseline; for Baseline α-Gal A activity (% WT): absence of migalastat; for Baseline α-Gal A activity (% WT) / 10 μM migalastat α-Gal A activity (% WT): percentage of baseline wild-type α-Gal A activity; for Baseline α-Gal A activity (% WT) / Baseline α-Gal A activity / 10 μM migalastat α-Gal A activity / 10 μM migalastat α-Gal A activity (% WT): mean ± SEM; for Baseline α-Gal A activity / 10 μM migalastat α-Gal A activity: lysates of HEK-293 cells transiently transfected with the mutant form; for Baseline α-Gal A activity: incubated 5 days in absence of migalastat; for 10 μM migalastat α-Gal A activity: incubated 5 days with 10 μM migalastat; for 10 μM migalastat α-Gal A activity (% WT): with 10 μM migalastat, 5 days. The method in brief: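 Activity reported as 4-MU released (nmol/mg/hr), mean±SEM, from lysates of transiently transfected HEK-293 cells expressing mutant α-Gal A, cultured with or without 10 μM migalastat.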

B1: I319M (protein)
chain: MQLRNPELHLGCALALRFLALVSWDIPGARALDNGLARTPTMGWLHWERFMCNLDCQEEPDSCISEKLFMEMAELMVSEGWKDAGYEYLCIDDCWMAPQRDSEGRLQADPQRFPHGIRQLANYVHSKGLKLGIYADVGNKTCAGFPGSFGYYDIDAQTFADWGVDLLKFDGCYCDSLENLADGYKHMSLALNRTGRSIVYSCEWPLYMWPFQKPNYTEIRQYCNHWRNFADIDDSWKSIKSILDWTSFNQERIVDVAGPGGWNDPDMLVIGNFGLSWNQQVTQMALWAIMAAPLFMSNDLRHISPQAKALLQDKDVIAMNQDPLGKQGYQLRQGDNFEVWERPLSGLAWAVAMINRQEIGGPRSYTIAVASLGKGVACNPACFITQLLPVKRKLGFYEWTSRLRSHINPTGTVLLQLENTMQMSLKDLL
On to B1, for which the “Absolute increase (% WT)” value came out at 9.4 % WT, the Relative increase is 1.2, the “Baseline α-Gal A activity (% WT)” value turned out to be 47.4 ± 2.2 % WT and the “Baseline α-Gal A activity” value was 12191 ± 433 nmol/mg/h. Besides, the “10 μM migalastat α-Gal A activity” value worked out at 14802 ± 727 nmol/mg/h and the “10 μM migalastat α-Gal A activity (% WT)” value is reported as 56.8 ± 2.3 % WT.

B2: D322A (protein)
chain: MQLRNPELHLGCALALRFLALVSWDIPGARALDNGLARTPTMGWLHWERFMCNLDCQEEPDSCISEKLFMEMAELMVSEGWKDAGYEYLCIDDCWMAPQRDSEGRLQADPQRFPHGIRQLANYVHSKGLKLGIYADVGNKTCAGFPGSFGYYDIDAQTFADWGVDLLKFDGCYCDSLENLADGYKHMSLALNRTGRSIVYSCEWPLYMWPFQKPNYTEIRQYCNHWRNFADIDDSWKSIKSILDWTSFNQERIVDVAGPGGWNDPDMLVIGNFGLSWNQQVTQMALWAIMAAPLFMSNDLRHISPQAKALLQDKDVIAINQAPLGKQGYQLRQGDNFEVWERPLSGLAWAVAMINRQEIGGPRSYTIAVASLGKGVACNPACFITQLLPVKRKLGFYEWTSRLRSHINPTGTVLLQLENTMQMSLKDLL
Turning to B2, the “Absolute increase (% WT)” value is listed as 15.3 % WT, the Relative increase is recorded as 3.2, the “Baseline α-Gal A activity (% WT)” value was 6.8 ± 0.4 % WT and the “Baseline α-Gal A activity” value is 1908 ± 139 nmol/mg/h. In addition, the “10 μM migalastat α-Gal A activity” value was found to be 6170 ± 310 nmol/mg/h and the “10 μM migalastat α-Gal A activity (% WT)” value is reported as 22.2 ± 1 % WT.

B3: L324W (protein)
chain: MQLRNPELHLGCALALRFLALVSWDIPGARALDNGLARTPTMGWLHWERFMCNLDCQEEPDSCISEKLFMEMAELMVSEGWKDAGYEYLCIDDCWMAPQRDSEGRLQADPQRFPHGIRQLANYVHSKGLKLGIYADVGNKTCAGFPGSFGYYDIDAQTFADWGVDLLKFDGCYCDSLENLADGYKHMSLALNRTGRSIVYSCEWPLYMWPFQKPNYTEIRQYCNHWRNFADIDDSWKSIKSILDWTSFNQERIVDVAGPGGWNDPDMLVIGNFGLSWNQQVTQMALWAIMAAPLFMSNDLRHISPQAKALLQDKDVIAINQDPWGKQGYQLRQGDNFEVWERPLSGLAWAVAMINRQEIGGPRSYTIAVASLGKGVACNPACFITQLLPVKRKLGFYEWTSRLRSHINPTGTVLLQLENTMQMSLKDLL
Consider B3, for which the “Absolute increase (% WT)” value was 19.8 % WT, the Relative increase was 1.3, the “Baseline α-Gal A activity (% WT)” value is given as 73.5 ± 1.8 % WT and the “Baseline α-Gal A activity” value is 20623 ± 721 nmol/mg/h. In addition, the “10 μM migalastat α-Gal A activity” value came to 25772 ± 1045 nmol/mg/h and the “10 μM migalastat α-Gal A activity (% WT)” value is 93.3 ± 4.5 % WT.

B4: N320S (protein)
chain: MQLRNPELHLGCALALRFLALVSWDIPGARALDNGLARTPTMGWLHWERFMCNLDCQEEPDSCISEKLFMEMAELMVSEGWKDAGYEYLCIDDCWMAPQRDSEGRLQADPQRFPHGIRQLANYVHSKGLKLGIYADVGNKTCAGFPGSFGYYDIDAQTFADWGVDLLKFDGCYCDSLENLADGYKHMSLALNRTGRSIVYSCEWPLYMWPFQKPNYTEIRQYCNHWRNFADIDDSWKSIKSILDWTSFNQERIVDVAGPGGWNDPDMLVIGNFGLSWNQQVTQMALWAIMAAPLFMSNDLRHISPQAKALLQDKDVIAISQDPLGKQGYQLRQGDNFEVWERPLSGLAWAVAMINRQEIGGPRSYTIAVASLGKGVACNPACFITQLLPVKRKLGFYEWTSRLRSHINPTGTVLLQLENTMQMSLKDLL
On to B4, for which the “Absolute increase (% WT)” value was 23.9 % WT, the Relative increase was 1.3, the “Baseline α-Gal A activity (% WT)” value is given as 82.9 ± 4.5 % WT and the “Baseline α-Gal A activity” value came to 21562 ± 1285 nmol/mg/h. Moreover, the “10 μM migalastat α-Gal A activity” value stood at 28097 ± 1522 nmol/mg/h and the “10 μM migalastat α-Gal A activity (% WT)” value stood at 106.7 ± 3.9 % WT.

B5: L324V (protein)
chain: MQLRNPELHLGCALALRFLALVSWDIPGARALDNGLARTPTMGWLHWERFMCNLDCQEEPDSCISEKLFMEMAELMVSEGWKDAGYEYLCIDDCWMAPQRDSEGRLQADPQRFPHGIRQLANYVHSKGLKLGIYADVGNKTCAGFPGSFGYYDIDAQTFADWGVDLLKFDGCYCDSLENLADGYKHMSLALNRTGRSIVYSCEWPLYMWPFQKPNYTEIRQYCNHWRNFADIDDSWKSIKSILDWTSFNQERIVDVAGPGGWNDPDMLVIGNFGLSWNQQVTQMALWAIMAAPLFMSNDLRHISPQAKALLQDKDVIAINQDPVGKQGYQLRQGDNFEVWERPLSGLAWAVAMINRQEIGGPRSYTIAVASLGKGVACNPACFITQLLPVKRKLGFYEWTSRLRSHINPTGTVLLQLENTMQMSLKDLL
B5: the “Absolute increase (% WT)” value came to 13.0 % WT, the Relative increase is reported as 1.2, the “Baseline α-Gal A activity (% WT)” value is 57.2 ± 2.1 % WT and the “Baseline α-Gal A activity” value is 17027 ± 1167 nmol/mg/h. Further, the “10 μM migalastat α-Gal A activity” value is 20866 ± 1331 nmol/mg/h and the “10 μM migalastat α-Gal A activity (% WT)” value came out at 70.2 ± 2 % WT.

B6: D322V (protein)
chain: MQLRNPELHLGCALALRFLALVSWDIPGARALDNGLARTPTMGWLHWERFMCNLDCQEEPDSCISEKLFMEMAELMVSEGWKDAGYEYLCIDDCWMAPQRDSEGRLQADPQRFPHGIRQLANYVHSKGLKLGIYADVGNKTCAGFPGSFGYYDIDAQTFADWGVDLLKFDGCYCDSLENLADGYKHMSLALNRTGRSIVYSCEWPLYMWPFQKPNYTEIRQYCNHWRNFADIDDSWKSIKSILDWTSFNQERIVDVAGPGGWNDPDMLVIGNFGLSWNQQVTQMALWAIMAAPLFMSNDLRHISPQAKALLQDKDVIAINQVPLGKQGYQLRQGDNFEVWERPLSGLAWAVAMINRQEIGGPRSYTIAVASLGKGVACNPACFITQLLPVKRKLGFYEWTSRLRSHINPTGTVLLQLENTMQMSLKDLL
With B6, the “Absolute increase (% WT)” value turned out to be 11.7 % WT, the Relative increase is 5.6, the “Baseline α-Gal A activity (% WT)” value came out at 2.6 ± 0.2 % WT and the “Baseline α-Gal A activity” value amounted to 714 ± 53 nmol/mg/h. Besides, the “10 μM migalastat α-Gal A activity” value is 3989 ± 217 nmol/mg/h and the “10 μM migalastat α-Gal A activity (% WT)” value was 14.3 ± 0.6 % WT.

B7: Q321K (protein)
chain: MQLRNPELHLGCALALRFLALVSWDIPGARALDNGLARTPTMGWLHWERFMCNLDCQEEPDSCISEKLFMEMAELMVSEGWKDAGYEYLCIDDCWMAPQRDSEGRLQADPQRFPHGIRQLANYVHSKGLKLGIYADVGNKTCAGFPGSFGYYDIDAQTFADWGVDLLKFDGCYCDSLENLADGYKHMSLALNRTGRSIVYSCEWPLYMWPFQKPNYTEIRQYCNHWRNFADIDDSWKSIKSILDWTSFNQERIVDVAGPGGWNDPDMLVIGNFGLSWNQQVTQMALWAIMAAPLFMSNDLRHISPQAKALLQDKDVIAINKDPLGKQGYQLRQGDNFEVWERPLSGLAWAVAMINRQEIGGPRSYTIAVASLGKGVACNPACFITQLLPVKRKLGFYEWTSRLRSHINPTGTVLLQLENTMQMSLKDLL
Take B7: the “Absolute increase (% WT)” value is listed as 32.0 % WT, the Relative increase turned out to be 2.1, the “Baseline α-Gal A activity (% WT)” value is on record as 29.2 ± 2 % WT and the “Baseline α-Gal A activity” value was determined as 7590 ± 520 nmol/mg/h. The “10 μM migalastat α-Gal A activity” value worked out at 16046 ± 870 nmol/mg/h and the “10 μM migalastat α-Gal A activity (% WT)” value amounted to 61.2 ± 2.4 % WT.

B8: N320T (protein)
chain: MQLRNPELHLGCALALRFLALVSWDIPGARALDNGLARTPTMGWLHWERFMCNLDCQEEPDSCISEKLFMEMAELMVSEGWKDAGYEYLCIDDCWMAPQRDSEGRLQADPQRFPHGIRQLANYVHSKGLKLGIYADVGNKTCAGFPGSFGYYDIDAQTFADWGVDLLKFDGCYCDSLENLADGYKHMSLALNRTGRSIVYSCEWPLYMWPFQKPNYTEIRQYCNHWRNFADIDDSWKSIKSILDWTSFNQERIVDVAGPGGWNDPDMLVIGNFGLSWNQQVTQMALWAIMAAPLFMSNDLRHISPQAKALLQDKDVIAITQDPLGKQGYQLRQGDNFEVWERPLSGLAWAVAMINRQEIGGPRSYTIAVASLGKGVACNPACFITQLLPVKRKLGFYEWTSRLRSHINPTGTVLLQLENTMQMSLKDLL
In the case of B8, the “Absolute increase (% WT)” value was found to be 21.8 % WT, the Relative increase was found to be 2.0, the “Baseline α-Gal A activity (% WT)” value turned out to be 21.6 ± 1.5 % WT and the “Baseline α-Gal A activity” value is 5597 ± 442 nmol/mg/h. Further, the “10 μM migalastat α-Gal A activity” value was 11276 ± 658 nmol/mg/h and the “10 μM migalastat α-Gal A activity (% WT)” value came out at 43.3 ± 1.9 % WT.
